Reference: PMC12090352, “Strigolactones enhance apple drought resistance via the MsABI5-MsSMXL1-MsNAC022 cascade”

T1: MsABI5 (Malus sieversii, UniProt A0A498IDK6 1-328+A0A540LD52:305-441, internal_change)
T1 sequence: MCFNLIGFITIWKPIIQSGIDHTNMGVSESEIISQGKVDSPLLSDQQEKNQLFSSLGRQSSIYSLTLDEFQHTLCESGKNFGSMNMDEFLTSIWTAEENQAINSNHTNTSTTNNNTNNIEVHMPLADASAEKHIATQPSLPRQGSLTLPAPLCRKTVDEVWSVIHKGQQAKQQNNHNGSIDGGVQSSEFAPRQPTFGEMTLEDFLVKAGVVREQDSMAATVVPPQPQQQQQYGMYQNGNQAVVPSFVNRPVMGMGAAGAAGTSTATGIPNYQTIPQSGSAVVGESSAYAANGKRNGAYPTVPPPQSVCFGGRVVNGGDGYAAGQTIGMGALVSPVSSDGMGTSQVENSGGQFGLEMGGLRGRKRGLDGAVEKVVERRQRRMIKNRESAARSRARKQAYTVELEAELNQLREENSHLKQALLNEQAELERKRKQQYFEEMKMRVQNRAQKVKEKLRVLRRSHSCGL

B1: MsSMXL1 promoter P3 ACE probe (dsDNA)
DNA 1: ATGTTGATTAACGTACCACTTAGTAC
DNA 2: GTACTAAGTGGTACGTTAATCAACAT
B2: MsP5CS2.2 promoter ABRE probe (dsDNA)
DNA 1: AGAAACCGACACGTCTCTCTTTTCTA
DNA 2: TAGAAAAGAGAGACGTGTCGGTTTCT

Target: T1, MsABI5
Experiment: EMSA; EMSA per manufacturer's instructions (Beyotime); buffer, salt, pH and temperature not stated
Conditions: protein: recombinant; tags: MBP (pMAL-C2X); chain copies: 2; blunt

Binder	binding result
B1	binds
B2	binds
